Assay results as given in patent US11198713B2, “Agents modulating beta-catenin functions and methods thereof” (FOG PHARMACEUTICALS, INC., priority 2017, dated 2021).
Numbered stars: 1 amine (or outer) side, 2 acyl side, 3 side chain; on linkers, the order of the positions; unused ones are H or OH. Bridge positions count the residues as written; N and C are the ends. Square brackets hold non-standard residues; d marks the D form. Primed or numbered codes have the meaning given here. MB(4) = Monomer B (PyrS), N-Alloc pyrrolidine stapling residue, (S)-3-amino-1-(allyloxycarbonyl)pyrrolidine-3-carboxylic acid, C=CCOC(=O)N1CC[C@@](N[*:1])(C(=O)[*:2])C1; MB(8) = Monomer B (PyrS), pyrrolidine stapling residue bearing N-allyl carbamate (Alloc), forms carbamate staple with R8 by ring-closing olefin metathesis, i to i+7; MB″ = Monomer B (PyrS), pyrrolidine stapling residue with N-allyl carbamate, forms carbamate staple with R8 by olefin metathesis; MB(6) = Monomer B (PyrS), N-Alloc pyrrolidine stapling residue, forms carbamate staple with R8 by olefin metathesis; Tyr(OMe) = O-methyl tyrosine (source code MeY), COc1ccc(C[C@H](N[*:1])C(=O)[*:2])cc1; MB(5) = Monomer B (PyrS), N-Alloc pyrrolidine stapling residue; Ala(2-furyl) = N[C@@H](Cc1ccco1)C(=O)O; Phe(4-F) = N[C@@H](Cc1ccc(F)cc1)C(=O)O; 1Nal = N[C@@H](Cc1cccc2ccccc12)C(=O)O; Ala(cPr) = N[C@@H](CC1CC1)C(=O)O; 2Pal = N[C@@H](Cc1ccccn1)C(=O)O; 3Pal = N[C@@H](Cc1cccnc1)C(=O)O; R8 = C=CCCCCCC[C@@](C)(N)C(=O)O; 2Thi = N[C@@H](Cc1cccs1)C(=O)O; Cha = N[C@@H](CC1CCCCC1)C(=O)O; Cba = N[C@@H](CC1CCC1)C(=O)O; Tle = CC(C)(C)[C@H](N)C(=O)O; cpa = 3-cyclopropylalanine; Nva = CCC[C@H](N)C(=O)O

T1: full-length beta-catenin (UniProt P35222 2-781, limits assumed)
T1 construct: mature; also called full-length ß-Catenin; β-catenin
T1 sequence (looked up): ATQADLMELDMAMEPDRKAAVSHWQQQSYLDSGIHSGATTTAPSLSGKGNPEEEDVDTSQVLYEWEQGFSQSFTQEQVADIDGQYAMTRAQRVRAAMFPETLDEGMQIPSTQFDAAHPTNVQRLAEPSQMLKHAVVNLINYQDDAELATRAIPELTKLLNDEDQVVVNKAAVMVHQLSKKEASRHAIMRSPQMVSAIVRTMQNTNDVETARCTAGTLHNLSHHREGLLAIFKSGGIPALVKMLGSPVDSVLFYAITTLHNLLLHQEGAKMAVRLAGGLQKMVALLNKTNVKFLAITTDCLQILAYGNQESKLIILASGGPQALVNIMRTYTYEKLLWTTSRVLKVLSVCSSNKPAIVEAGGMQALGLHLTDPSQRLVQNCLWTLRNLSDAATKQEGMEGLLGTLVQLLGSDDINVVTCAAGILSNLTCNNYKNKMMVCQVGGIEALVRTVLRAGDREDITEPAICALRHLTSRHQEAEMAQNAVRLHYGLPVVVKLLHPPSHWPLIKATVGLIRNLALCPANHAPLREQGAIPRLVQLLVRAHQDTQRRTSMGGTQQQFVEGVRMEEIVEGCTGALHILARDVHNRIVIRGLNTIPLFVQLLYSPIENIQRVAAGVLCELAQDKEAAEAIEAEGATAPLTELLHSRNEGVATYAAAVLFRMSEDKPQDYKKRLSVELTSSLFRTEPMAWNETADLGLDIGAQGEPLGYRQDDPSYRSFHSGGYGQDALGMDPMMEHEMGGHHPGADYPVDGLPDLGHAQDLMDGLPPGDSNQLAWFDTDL


Target: T1, full-length beta-catenin
Assay: competition FP; NB = no binding detected
Protocol: In some embodiments, a competition fluorescence polarization assay is used to assess binding of provided compounds to beta-catenin. In an exemplary procedure, solutions of provided compounds, e.g., provided stapled peptides, were prepared in a buffer (e.g., 50 mM Tris pH 8.0, 250 mM NaCl, 2% glycerol, 0.5 mM EDTA, 0.02% w/v sodium azide) using a 3-fold serial dilution from 5 µM. Probe solution (15 nM full-length ß-Catenin, 20 nM FITC labeled peptide in buffer) was prepared and incubated for a period of time, e.g., 5 minutes, and the a volume, e.g., 40 µL per well plated in suitable plate, e.g., a black polystyrene 384-well plate (Corning). Equal volume of the serial diluted peptide was added to the plate and incubated protected from light for 15 minutes prior to read. Reads were performed on a Spectramax M5 (Molecular Devices) in duplicate. Suitable probe was FITC-PEG1-PQ-S5-ILD-S5-HVRRVWR (SEQ ID NO: 1) (hydrocarbon staple formed by two S5 via olefin metathesis) and/or FITC-bA-PQ-S5-ILD-S5-HVRRVWR (SEQ ID NO: 3) (hydrocarbon staple formed by two S5 via olefin metathesis). […] Another peptide, FPO217c (Ac-AR_8ILDAHIM$B5$RVW (SEQ ID NO: 280), with N-terminal proline removed and valine replaced with isoleucine compared to FP0025c) was prepared.

Row | Binder | binding result
1 | Ac-A[R8]ILDA[2Pal]I[MB(8)]VVW-NH2 (staple 2-9; not fully specified; printed as Ac-A-R8-I-L-D-A-2pyr-I-MB-V-V-W-NH2) [FP0562c Isomer 2] | no binding
2 | Ac-A[R8]ILDA[2Pal]I[MB(4)][cpa]VW-NH2 (staple 2-9; not fully specified; printed as Ac-A-R8-I-L-D-A-2pyr-I-MB-cpa-V-W-NH2) [FP0574c Isomer 2] | no binding
3 | Ac-A[R8]ILDA[2Pal]I[MB(5)][2Pal]VW-NH2 (staple 2-9; not fully specified; printed as Ac-A-R8-I-L-D-A-2pyr-I-MB-2pyr-V-W-NH2) [FP0572c Isomer 1] | no binding
4 | Ac-A[R8]ILDA[2Pal]I[MB(4)][Tyr(OMe)]VW-NH2 (staple 2-9; not fully specified; printed as Ac-A-R8-I-L-D-A-2pyr-I-MB-MeY-V-W-NH2) [FP0575c Isomer 1] | no binding
5 | Ac-A[R8]ILDA[2Pal]I[MB(6)][Ala(2-furyl)]VW-NH2 (staple 2-9; not fully specified; printed as Ac-A-R8-I-L-D-A-2pyr-I-MB-fur-V-W-NH2) [FP0569c Isomer 2] | no binding
6 | Ac-A[R8]ILDA[2Pal]I[MB(6)][Nva]VW-NH2 (staple 2-9; not fully specified; printed as Ac-A-R8-I-L-D-A-2pyr-I-MB-Nva-V-W-NH2) [FP0567c Isomer 2] | no binding
7 | Ac-A[R8]ILDA[2Pal]I[MB(6)][Nva]VW-NH2 (staple 2-9; not fully specified; printed as Ac-A-R8-I-L-D-A-2pyr-I-MB-Nva-V-W-NH2) [FP0567c Isomer 1] | no binding
8 | Ac-A[R8]ILDA[2Pal]I[MB(6)][2Thi]VW-NH2 (staple 2-9; not fully specified; printed as Ac-A-R8-I-L-D-A-2pyr-I-MB-thi-V-W-NH2) [FP0571c Isomer 1] | no binding
9 | Ac-A[R8]ILDA[2Pal]I[MB(6)][Ala(2-furyl)]VW-NH2 (staple 2-9; not fully specified; printed as Ac-A-R8-I-L-D-A-2pyr-I-MB-fur-V-W-NH2) [FP0569c Isomer 1] | no binding
10 | Ac-A[R8]ILDA[2Pal]I[MB(6)][Tle]VW-NH2 (staple 2-9; not fully specified; printed as Ac-A-R8-I-L-D-A-2pyr-I-MB-tLeu-V-W-NH2) [FP0568c Isomer 1] | no binding
11 | Ac-A[R8]ILDA[2Pal]I[MB(4)][Phe(4-F)]VW-NH2 (staple 2-9; not fully specified; printed as Ac-A-R8-I-L-D-A-2pyr-I-MB-4FF-V-W-NH2) [FP0576c Isomer 1] | no binding
12 | Ac-A[R8]ILDA[2Pal]I[MB″]YVW-NH2 (staple 2-9; not fully specified; printed as Ac-A-R8-I-L-D-A-2pyr-I-MB-Y-V-W-NH2) [FP0564c Isomer 1] | no binding
13 | Ac-A[R8]ILDA[2Pal]I[MB(6)][Cba]VW-NH2 (staple 2-9; not fully specified; printed as Ac-A-R8-I-L-D-A-2pyr-I-MB-Cba-V-W-NH2) [FP0565c Isomer 2] | no binding
14 | Ac-A[R8]ILDA[2Pal]I[MB(4)][Phe(4-F)]VW-NH2 (staple 2-9; not fully specified; printed as Ac-A-R8-I-L-D-A-2pyr-I-MB-4FF-V-W-NH2) [FP0576c Isomer 2] | no binding
15 | Ac-A[R8]ILDA[2Pal]I[MB(5)][3Pal]VW-NH2 (staple 2-9; not fully specified; printed as Ac-A-R8-I-L-D-A-2pyr-I-MB-3pyr-V-W-NH2) [FP0573c Isomer 2] | no binding
16 | Ac-A[R8]ILDA[2Pal]I[MB(5)][Ala(cPr)]VW-NH2 (staple 2-9; not fully specified; printed as Ac-A-R8-I-L-D-A-2pyr-I-MB-cpa-V-W-NH2) [FP0574c Isomer 1] | no binding
17 | Ac-A[R8]ILDA[2Pal]I[MB(4)][1Nal]VW-NH2 (staple 2-9; not fully specified; printed as Ac-A-R8-I-L-D-A-2pyr-I-MB-1NapA-V-W-NH2) [FP0577c Isomer 1] | no binding
18 | Ac-A[R8]ILDA[2Pal]I[MB″][Cba]VW-NH2 (staple 2-9; not fully specified; printed as Ac-A-R8-I-L-D-A-2pyr-I-MB-Cba-V-W-NH2) [FP0565c Isomer 1] | no binding

More lines, now with the values ahead:

Row | binding result | Binder
19 | no binding | Ac-A[R8]ILDA[2Pal]I[MB″]WVW-NH2 (staple 2-9; not fully specified; printed as Ac-A-R8-I-L-D-A-2pyr-I-MB-W-V-W-NH2) [FP0563c Isomer 2]
20 | no binding | Ac-A[R8]ILDA[2Pal]I[MB″]WVW-NH2 (staple 2-9; not fully specified; printed as Ac-A-R8-I-L-D-A-2pyr-I-MB-W-V-W-NH2) [FP0563c Isomer 1]
21 | no binding | Ac-A[R8]ILDA[2Pal]I[MB″]YVW-NH2 (staple 2-9; not fully specified; printed as Ac-A-R8-I-L-D-A-2pyr-I-MB-Y-V-W-NH2) [FP0564c Isomer 2]
22 | no binding | Ac-A[R8]ILDA[2Pal]I[MB(5)][3Pal]VW-NH2 (staple 2-9; not fully specified; printed as Ac-A-R8-I-L-D-A-2pyr-I-MB-3pyr-V-W-NH2) [FP0573c Isomer 1]
23 | no binding | Ac-A[R8]ILDA[2Pal]I[MB(6)][Tle]VW-NH2 (staple 2-9; not fully specified; printed as Ac-A-R8-I-L-D-A-2pyr-I-MB-tLeu-V-W-NH2) [FP0568c Isomer 2]
24 | no binding | Ac-A[R8]ILDA[2Pal]I[MB(6)][2Thi]VW-NH2 (staple 2-9; not fully specified; printed as Ac-A-R8-I-L-D-A-2pyr-I-MB-thi-V-W-NH2) [FP0571c Isomer 2]
25 | no binding | Ac-A[R8]ILDA[2Pal]I[MB(4)][Tyr(OMe)]VW-NH2 (staple 2-9; not fully specified; printed as Ac-A-R8-I-L-D-A-2pyr-I-MB-MeY-V-W-NH2) [FP0575c Isomer 2]
26 | no binding | Ac-A[R8]ILDA[2Pal]I[MB(6)][Cha]VW-NH2 (staple 2-9; not fully specified; printed as Ac-A-R8-I-L-D-A-2pyr-I-MB-Cha-V-W-NH2) [FP0566c Isomer 1]
